Laboratory results published in US20160346402A1 (Bayer, published 2016).
Substitutions are numbered along the chain they refer to.

B1: 136.1(TPP-2194) (antibody, mouse IgG2a, kappa, V domains shown)
VH: EVKLEESGGGLVQPGGSMKLSCVASGFTFNNYWMSWVRQSPEKGLEWLAEIRLKSDNYATHYAESVKGKFTISRDDSKSRLYLQMNNLRAENTGIYYCTGGFADYFDYWGQGTTLTVSS
VL: DIVLTQSPASLTVSLGQRATISCRASQSVSTSSYSYMQWYQQRPGQPPKLLIKYATNLDSGVPARFSGSGSGTDFTLNIHPVEEEDAATYYCQHSWEIPYTFGGGTKLEIKR
notes: Comparative antibody; murine IgG2a
B2: TPP-2090 (antibody, human IgG1, kappa, V domains shown)
VH: EVQLLESGGGLVQPGGSLRLSCAASGFTFSPYPMIWVRQAPGKGLEWVSYISPSGGSTHYADSVKGRFTISRDNSKNTLYLQMNSLRAEDTAVYYCARGGDTYFDYFDYWGQGTLVTVSS
VL: DIQMTQSPSSLSASVGDRVTITCRASQSISGYLNWYQQKPGKAPKLLIYQASSLQSGVPSRFSGSGSGTDFTLTISSLQPEDFATYYCQQSYTSPFITFGQGTKVEIKR
notes: Human IgG1; biotinylated (biotin-LC-NHS) when used as soluble partner in the ELISAs; also called anti-TWEAKR AK-1
B3: TPP-2084 (antibody, human IgG1, kappa, V domains shown)
VH: B2 VH with I35M
VL: not shown
notes: Human IgG1; biotinylated when used as soluble partner in the ELISAs
B4: TPP-2084 (antibody, V domains shown)
VH: B2 VH with I35M
VL: not shown
notes: human IgG1
B5: TPP-2090 (antibody, V domains shown)
VH: B2 VH
VL: B2 VL
notes: human IgG1; also called anti-TWEAKR AK-1
B6: P3G5(TPP-2195) (antibody, mouse IgG2a, kappa, V domains shown)
VH: QVQLQQSGPEVVRPGVSVKISCKGSGYTFTDYGIHWVKQSHAKSLEWIGVISTYNGYTNYNQKFKGKATMTVDKSSSTAYMELARLTSEDSAIYYCARAYYGNLYYAMDYWGQGTSVTVSS
VL: DIVLTQSPASLAVSLGQRATISCRANKSVSTSSYSYMHWYQQKPGQPPKLLIKYASNLESGVPARFSGSGSGTDFILNIHPVEEEDAATYYCQHSRELPFTFGSGTKLEIKR
notes: murine IgG2a; variable domains from WO2009/140177 with a murine IgG2 constant region added; biotinylated IgG in the ELISA
B7: P3G5(TPP-2195) (antibody, mouse IgG2a, kappa, V domains shown)
VH: B6 VH
VL: B6 VL
notes: as for B1
B8: PDL-192(TPP-1104) (antibody, human IgG1, kappa, V domains shown)
VH: QVELVESGGGLVQPGGSLRLSCAASGFTFSSYWMSWVRQAPGKGLEWVAEIRLKSDNYATHYAESVKGRFTISRDDSKNSLYLQMNSLRAEDTAVYYCTGYYADAMDYWGQGTLVTVSS
VL: DIQMTQSPSSLSASVGDRVTITCRASQSVSTSSYSYMHWYQQKPGKAPKLLIKYASNLESGVPSRFSGSGSGTDFTLTISSLQPEDFATYYCQHSWEIPYTFGGGTKVEIKR
notes: Comparative antibody; variable domains from WO2009/020933 with human IgG1 constant region added

Molecular target: T1, TPP-1984, hTNFRSF12 amino acids 28-68-CT-His (human)
T1 construct: Monomeric ectodomain with C-terminal deletion of amino acids 69 to 80; also called TTP-1984; TWEAKR (28-68)-HIS
T1 chain: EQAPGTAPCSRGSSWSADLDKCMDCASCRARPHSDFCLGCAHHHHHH
Assay: ELISA: TPP-1984 (TWEAKR 28-68-HIS) coated at 1 µg/ml; biotinylated IgG at 0.08 µg/ml (open bars) and 0.3 µg/ml (solid bars); streptavidin-HRP, Amplex Red; Y = signal [Rfu]
Experimental: FIG. 5: Interaction of TWEAKR (28-68) with antibodies according to the invention and reference antibodies. What is shown is the result of an ELISA with TWEAKR (28-68)-HIS coating (TTP-1984, 1 μg/ml) and 0.08 μg/ml (open bars) and 0.3 μ/ml (solid bars) of biotinylated IgG as soluble binding partner. Detection was carried out using streptavidin-HRP and Amplex Red substrate.
(§1) Detection was carried out using streptavidin-HRP and Amplex Red substrate. IgGs were biotinylated using an about 2-fold molar excess of biotin-LC-NHS (Pierce; Cat. No. 21347) according to the instructions of the manufacturer and desalted using Zeba desalting columns (Pierce; Cat. No. 89889).

Binding result, binds:
B1
B2
B3

Each binder was assayed against T2, hTNFRSF12 amino acids a28-80-L65Q-hIgG1-Fc (human) (assay: ELISA: TWEAKR-Fc construct coated at 62 ng/ml, biotinylated IgG titrated from 100 nM; token + marks IC50 of 1 to […] pM).
T2 construct: TWEAKR-Fc mutein, coated on the ELISA plate
Experimental: (§2) To obtain dose-reaction data, the different TWEAKR-Fc muteins were coated at a low concentration (62 ng/ml) onto a 384-well Maxisorb ELISA plate, and a serial 2-fold dilution of biotinylated IgG beginning with a concentration of 100 nM was used as a soluble binding partner. Detection was carried out using streptavidin-HRP and Amplex Red.
(§3) IgGs were biotinylated using an about 2-fold molar excess of biotin-LC-NHS (Pierce; Cat. No. 21347) according to the instructions of the manufacturer and desalted using Zeba desalting columns (Pierce; Cat. No. 89889).

Binding result, binds:
B4
B5
B6

These binders were tested against T3, hTNFRSF12 amino acids a28-80-hIgG1-Fc (human) in the same assay as above.
T3 construct: wild-type TWEAKR-Fc (dimeric Fc fusion), coated on the ELISA plate; also called TPP-599; HUMAN-TNFRSF12Aaa28-80-hIgG1-Fc
Experimental: as §2, §3

Binding result, binds:
B4
B5
B6

The binders below were run against T4, hTNFRSF12 amino acids a28-80-S40R-hIgG1-Fc (human) in the same assay as above.
T4 construct: TWEAKR-Fc mutein, coated on the ELISA plate; also called TPP-1987
Experimental: as §2, §3

Binding result, binds:
B4
B5
B6

The binders below were run against T5, hTNFRSF12 amino acids a28-80-T33Q-hIgG1-Fc (human) in the same assay as above.
T5 construct: TWEAKR-Fc mutein, coated on the ELISA plate; also called TPP-1986
Experimental: as §2, §3

Binding result, binds:
B4
B5
B6

What follows are binders tested against T6, hTNFRSF12 amino acids a28-80-H60K-hIgG1-Fc (human) in the same assay as above.
T6 construct: TWEAKR-Fc mutein, coated on the ELISA plate; also called TPP-1989
Experimental: as §2, §3

Binding result, binds:
B4
B5
B6

The binders below were run against T7, hTNFRSF12 amino acids a28-80-M50A-hIgG1-Fc (human) in the same assay as above.
T7 construct: TWEAKR-Fc mutein, coated on the ELISA plate; also called TPP-1988
Experimental: as §2, §3

Binding result, binds:
B4
B5
B6

These binders were tested against T8, hTNFRSF12 amino acids a28-80-R56P-hIgG1-Fc (human) in the same assay as above.
T8 construct: TWEAKR-Fc mutein, coated on the ELISA plate; also called TPP-2683
Experimental: as §2, §3

Binding result, binds:
B4
B5
B6

These binders were tested against T9, TPP-2203, TWEAKR-ECD-34-68-hIgGFc-His (human) (assay: ELISA: TPP-2203 (TWEAKR 34-68-Fc) coated at 1 µg/ml; biotinylated IgG at 0.08 µg/ml (open bars) and 0.3 µg/ml (solid bars); streptavidin-HRP, Amplex Red; Y = signal [Rfu]).
T9 construct: also called TWEAKR (34-68)-Fc fusion protein; N- and C-terminally truncated ectodomain
Experimental: FIG. 4: Interaction of the cysteine-rich domain of TWEAKR with antibodies according to the invention and reference antibodies. What is shown is the result of an ELISA with TWEAKR (34-68)-Fc fusion protein coating (TPP-2203, 1 μg/ml) and 0.08 μg/ml (open bars) and 0.3 μ/ml (solid bars) of biotinylated IgG as soluble binding partner. Detection was carried out using streptavidin-HRP and Amplex Red substrate.
as §1

Binding result, binds:
B1
B2
B3
B7

The binders below were run against T10, TPP-2202, TWEAKR-ECD-28-80-hIgGFc-His (human) (assay: ELISA: TPP-2202 (TWEAKR 28-80-Fc) coated at 1 µg/ml; biotinylated IgG at 0.08 µg/ml (open bars) and 0.3 µg/ml (solid bars; legend of FIG. 3 prints 0.03); streptavidin-HRP, Amplex Red; Y = signal [Rfu]).
T10 construct: also called TWEAKR-Fc fusion protein; full-length ectodomain Fc fusion
Experimental: FIG. 3: Interaction of the TWEAKR ectodomain with antibodies and reference antibodies. […] Detection was carried out using streptavidin-HRP and Amplex Red substrate.
as §1

Binding result, binds:
B1
B2
B3
B7

Each binder was assayed against T11, TPP-2614, TweakR-ECD-34-68-hIgGFc-His-D47A (human) (assay: ELISA: IgG coated at 1 µg/ml; 8-fold diluted HEK293 supernatant with the TWEAKR(34-68)-Fc-His mutein added; anti-HIS-HRP, Amplex Red; signal [Rfu]).
T11 construct: also called D47A mutein
Experimental: These TWEAKR(34-68) Fc muteins were expressed in HEK293 cells. To obtain dose-reaction data, IgGs were coated at a concentration of 1 μg/ml onto a 384-well Maxisorp ELISA plate, and a serial 2-fold dilution of the supernatant comprising the TWEAKR mutein was used as soluble binding partner. Detection was carried out using anti-HIS-HRP and Amplex Red.

Binding result, binds:
B8
